Data reported in publication PMC9636964 (Proceedings of the National Academy of Sciences of the …, 2022).

Experiments:
[1] = target: T1, G3BP1 NTF2L (nuclear transport factor 2-like domain of Ras-GTPase-activating protein binding protein (human, UniProt Q13283 1-139)); experiment: ITC
[2] = target: T1, G3BP1 NTF2L (nuclear transport factor …); experiment: NMR titration

T1 sequence (Q13283 1-139): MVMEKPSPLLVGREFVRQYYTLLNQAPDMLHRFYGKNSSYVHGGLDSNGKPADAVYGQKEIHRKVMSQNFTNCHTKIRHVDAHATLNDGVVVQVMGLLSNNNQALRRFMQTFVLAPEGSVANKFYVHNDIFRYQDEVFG

| Binder | Kd [1] | binding result [2] |
| --- | --- | --- |
| VAQADPLVRRQRVQDLMAQMQGPYNFIQDSMLDFENQTLD [Caprin-1(347-386) peptide] | 1300 nM | – |
| Caprin-1(330-432) (domain or fragment, 15N-labeled) QPQAASPSVPEPHSLTPVAQADPLVRRQRVQDLMAQMQGPYNFIQDSMLDFENQTLDPAIVSAQPMNPTQNMDMPQLVCPPVHSESRLAQPNQVPVQPEATQV | – | binds |
